Measurements published in patent US20200262877A1, “ION CHANNEL-BINDING PEPTIDES AND METHODS OF USE THEREOF” (priority 2017, published 2020).

Tests used:
[1] = target: T1, α3β4 (Homo sapiens, UniProt P30926+P32297); test: Ion channel panel (IonWorks Barracuda): α3β4; type: cell-based; settings: 100% = no change, <100% = inhibition
T1 construct: host or cells: HEK293 or CHO
Procedure: (§1) This example describes a method for assaying ion channel activity in cells.
(§2) Peptides were screened in duplicate at final concentrations of 20 μM and 200 nM, as determined by amino acid analysis, and diluted into HEPES buffered physiological saline (HBPS). HEK293 or CHO cells from the American Type Culture Collection (ATCC) were transfected with the appropriate ion channel before use. HEK293 cells were grown in Dulbecco's Modified Eagle Medium/Nutrient Mixture F-12, and CHO cells were cultured in Ham's F-12 media. All cultures were supplemented with 10% fetal bovine serum, 100 U/ml penicillin G, 100 μg/ml streptomycin sulfate, and the appropriate selection antibiotics. Prior to use, cells were washed twice with Hank's Balanced Salt Solution, and treated with Accutase cell detachment solution (Sigma-Aldrich). Cells were then washed. Peptides and controls were incubated with cells for at least five minutes.
(§3) Percent inhibition was defined as: (1-(Ipeptide/Icontrol))×100%).
(§4) Percent values were calculated using the following formula: % activation=(IPeptide/Icontrol)×100%, where IPeptide is the current produced by co-application a peptide with agonist, and Icontrol refers to the current produced by stimulation in control. Control used for each ion channel is the reference compound matched to a particular channel, as illustrated in TABLE 10 below.

[2] = target: T2, α4β2 (Homo sapiens, UniProt P17787+P43681); test: Ion channel panel (IonWorks Barracuda): α4β2; type: cell-based; settings: 100% = no change, <100% = inhibition
T2 construct: host or cells: HEK293 or CHO
Procedure: as §1, §2, §3, §4

[3] = target: T3, Kir2.1 (Homo sapiens, UniProt P63252); test: Ion channel panel (IonWorks Barracuda): Kir2.1; type: cell-based; settings: 100% = no change, <100% = inhibition
T3 construct: host or cells: HEK293 or CHO
Procedure: as §1, §2, §3, §4

[4] = target: T4, 5HT3a (Homo sapiens, UniProt P46098); test: Ion channel panel (IonWorks Barracuda): 5HT3a; type: cell-based
T4 construct: host or cells: HEK293 or CHO
T4 sequence (P46098 whole entry, looked up): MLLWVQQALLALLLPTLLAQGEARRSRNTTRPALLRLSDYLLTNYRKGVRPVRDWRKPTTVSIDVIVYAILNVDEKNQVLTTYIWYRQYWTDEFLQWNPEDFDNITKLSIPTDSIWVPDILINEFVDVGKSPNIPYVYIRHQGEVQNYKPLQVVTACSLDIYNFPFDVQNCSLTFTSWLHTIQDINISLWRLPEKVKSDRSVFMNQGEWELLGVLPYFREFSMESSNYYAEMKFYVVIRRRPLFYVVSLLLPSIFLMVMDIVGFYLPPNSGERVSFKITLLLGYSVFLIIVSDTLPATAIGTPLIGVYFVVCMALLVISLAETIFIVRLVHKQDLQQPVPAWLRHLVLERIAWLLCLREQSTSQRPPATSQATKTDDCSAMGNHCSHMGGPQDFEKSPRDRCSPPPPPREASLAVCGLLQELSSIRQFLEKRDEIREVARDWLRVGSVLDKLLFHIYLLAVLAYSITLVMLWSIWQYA
Procedure: as §1, §2, §3, §4

[5] = tested on: GABA; test: Ion channel panel (IonWorks Barracuda): GABA; type: cell-based; settings: 100% = no change, <100% = inhibition
Procedure: as §1, §2, §3, §4

[6] = target: T5, Kv2.1 (Homo sapiens, UniProt Q14721); test: cell-based; settings: 100% = no change, <100% = inhibition
T5 construct: host or cells: HEK293 or CHO
Procedure: as §1, §2, §3, §4

[7] = target: T6, Cav2.1 (Homo sapiens, UniProt O00555); test: cell-based; settings: 100% = no change, <100% = inhibition
T6 construct: host or cells: HEK293 or CHO
Procedure: as §1, §2, §3, §4

[8] = target: T7, Cav2.2 (Homo sapiens, UniProt Q00975); test: cell-based; settings: 100% = no change, <100% = inhibition
T7 construct: host or cells: HEK293 or CHO
Procedure: as §1, §2, §3, §4

[9] = target: T8, Kv1.2 (Homo sapiens, UniProt P16389); test: cell-based; type: cell-based; settings: 100% = no change, <100% = inhibition
T8 construct: host or cells: HEK293 or CHO
Procedure: as §1, §2, §3, §4

[10] = target: T9, Kv1.3 (Homo sapiens, UniProt P22001); test: cell-based; type: cell-based; settings: 100% = no change, <100% = inhibition
T9 construct: host or cells: HEK293 or CHO
Procedure: as §1, §2, §3, §4

[11] = target: T10, Kv1.1 (Homo sapiens, UniProt Q09470); test: cell-based; type: cell-based; settings: 100% = no change, <100% = inhibition
T10 construct: host or cells: HEK293 or CHO
Procedure: as §1, §2, §3, §4

[12] = target: Nav1.5 (Homo sapiens, UniProt Q14524); test: in vitro; settings: 100% = no change; for Activity of Nav1.5 with peptide, expressed as a percentage of the reference compound: peptide at 0.2 μM; for Activity of Nav1.5 with peptide (percentage of the reference compound): peptide at 20 μM
Procedure: as §1, §2, §3, §4

[13] = target: hERG (Homo sapiens, UniProt Q12809); test: in vitro; settings: 100% = no change, <100% = inhibition
Procedure: as §1, §2, §3, §4

[14] = target: T11, NR2A (Homo sapiens, UniProt Q12879); test: Ion channel panel (IonWorks Barracuda): NR2A; type: cell-based; settings: 100% = no change, <100% = inhibition
T11 construct: host or cells: HEK293 or CHO
Procedure: as §1, §2, §3, §4

[15] = target: T12, TRPV1 (Homo sapiens, UniProt Q8NER1); test: Ion channel panel (IonWorks Barracuda): TRPV1; type: cell-based; settings: 100% = no change, <100% = inhibition
T12 construct: host or cells: HEK293 or CHO
Procedure: as §1, §2, §3, §4

[16] = target: T13, NR2B (Homo sapiens, UniProt Q13224); test: Ion channel panel (IonWorks Barracuda): NR2B; type: cell-based; settings: 100% = no change, <100% = inhibition
T13 construct: host or cells: HEK293 or CHO
Procedure: as §1, §2, §3, §4

[17] = target: T14, Nav1.7 (Homo sapiens, UniProt Q15858); test: cell-based; type: cell-based; settings: 100% = no change; for Activity of Nav1.7 with peptide, expressed as a percentage of the reference compound: peptide at 0.2 μM; for Activity of Nav1.7 with peptide (percentage of the reference compound): peptide at 20 μM
T14 construct: host or cells: HEK293 or CHO
Procedure: as §1
as §2, with “Peptides were screened in duplicate at final concentrations of 20 μM and 200 nM, as determined by amino acid analysis, and diluted into HEPES buffered physiological saline (HBPS).” left out
as §3, §4

[18] = target: T15, TRPA1 (Homo sapiens, UniProt O75762); test: Ion channel panel (IonWorks Barracuda): TRPA1; type: cell-based; settings: 100% = no change, <100% = inhibition
T15 construct: host or cells: HEK293 or CHO
Procedure: as §1, §2, §3, §4

[19] = first of two Nav1.5 columns (probably TP1)
[20] = second of two Nav1.5 columns (probably TP2)
[21] = first of two Nav1.7 columns (probably TP1)
[22] = second of two Nav1.7 columns (probably TP2)

Chain of Nav1.5 (Q14524 whole entry): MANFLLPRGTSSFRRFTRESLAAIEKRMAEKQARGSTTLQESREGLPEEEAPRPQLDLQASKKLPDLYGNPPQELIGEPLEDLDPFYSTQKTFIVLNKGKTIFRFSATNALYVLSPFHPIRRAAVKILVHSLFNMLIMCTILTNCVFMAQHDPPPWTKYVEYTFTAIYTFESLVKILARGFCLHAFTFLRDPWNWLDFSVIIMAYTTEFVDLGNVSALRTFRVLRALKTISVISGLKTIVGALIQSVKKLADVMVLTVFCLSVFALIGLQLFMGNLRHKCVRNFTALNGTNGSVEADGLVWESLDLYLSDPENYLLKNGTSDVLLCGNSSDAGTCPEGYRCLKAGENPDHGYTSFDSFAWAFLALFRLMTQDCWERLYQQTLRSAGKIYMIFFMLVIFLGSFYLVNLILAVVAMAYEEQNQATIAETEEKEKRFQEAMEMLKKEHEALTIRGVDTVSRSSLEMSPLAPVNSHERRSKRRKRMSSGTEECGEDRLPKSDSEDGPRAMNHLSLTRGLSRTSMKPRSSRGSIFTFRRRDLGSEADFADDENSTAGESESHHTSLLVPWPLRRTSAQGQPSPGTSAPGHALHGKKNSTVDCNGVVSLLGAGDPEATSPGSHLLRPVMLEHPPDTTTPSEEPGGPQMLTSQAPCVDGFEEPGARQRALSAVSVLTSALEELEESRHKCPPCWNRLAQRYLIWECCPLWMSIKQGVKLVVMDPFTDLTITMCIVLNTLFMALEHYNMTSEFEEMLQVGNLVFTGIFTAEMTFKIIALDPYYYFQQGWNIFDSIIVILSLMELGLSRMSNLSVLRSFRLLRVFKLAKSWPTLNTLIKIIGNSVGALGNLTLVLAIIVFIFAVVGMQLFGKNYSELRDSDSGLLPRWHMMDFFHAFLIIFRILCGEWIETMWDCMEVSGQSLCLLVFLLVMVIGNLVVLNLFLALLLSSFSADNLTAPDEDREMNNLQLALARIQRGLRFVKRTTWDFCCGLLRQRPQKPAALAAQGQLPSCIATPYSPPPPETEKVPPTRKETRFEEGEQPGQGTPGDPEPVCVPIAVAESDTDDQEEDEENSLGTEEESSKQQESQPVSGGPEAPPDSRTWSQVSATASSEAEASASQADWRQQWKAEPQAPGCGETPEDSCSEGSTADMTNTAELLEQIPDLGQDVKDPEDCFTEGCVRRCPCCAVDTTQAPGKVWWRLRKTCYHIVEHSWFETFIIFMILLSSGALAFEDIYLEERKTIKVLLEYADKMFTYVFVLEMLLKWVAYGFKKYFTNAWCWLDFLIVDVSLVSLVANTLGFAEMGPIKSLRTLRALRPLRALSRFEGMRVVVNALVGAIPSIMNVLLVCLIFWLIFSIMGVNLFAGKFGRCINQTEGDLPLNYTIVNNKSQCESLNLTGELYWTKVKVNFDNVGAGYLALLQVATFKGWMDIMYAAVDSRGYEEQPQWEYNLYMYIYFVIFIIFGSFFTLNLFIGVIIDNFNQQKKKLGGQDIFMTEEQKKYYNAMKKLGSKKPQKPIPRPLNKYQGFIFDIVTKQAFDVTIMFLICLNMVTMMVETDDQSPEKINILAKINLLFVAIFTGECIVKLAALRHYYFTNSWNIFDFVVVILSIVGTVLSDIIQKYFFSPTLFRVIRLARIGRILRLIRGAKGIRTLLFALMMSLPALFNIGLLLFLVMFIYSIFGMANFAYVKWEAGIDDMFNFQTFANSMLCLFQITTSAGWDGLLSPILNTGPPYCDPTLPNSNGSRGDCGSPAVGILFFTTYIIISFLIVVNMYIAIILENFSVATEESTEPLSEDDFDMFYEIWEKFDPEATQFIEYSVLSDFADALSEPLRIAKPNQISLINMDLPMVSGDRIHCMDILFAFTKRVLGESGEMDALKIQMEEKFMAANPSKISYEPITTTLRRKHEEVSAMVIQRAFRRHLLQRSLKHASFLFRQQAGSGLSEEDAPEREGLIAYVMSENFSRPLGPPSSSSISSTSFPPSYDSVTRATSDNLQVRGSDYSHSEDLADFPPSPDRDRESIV
T14 sequence (Q15858 whole entry): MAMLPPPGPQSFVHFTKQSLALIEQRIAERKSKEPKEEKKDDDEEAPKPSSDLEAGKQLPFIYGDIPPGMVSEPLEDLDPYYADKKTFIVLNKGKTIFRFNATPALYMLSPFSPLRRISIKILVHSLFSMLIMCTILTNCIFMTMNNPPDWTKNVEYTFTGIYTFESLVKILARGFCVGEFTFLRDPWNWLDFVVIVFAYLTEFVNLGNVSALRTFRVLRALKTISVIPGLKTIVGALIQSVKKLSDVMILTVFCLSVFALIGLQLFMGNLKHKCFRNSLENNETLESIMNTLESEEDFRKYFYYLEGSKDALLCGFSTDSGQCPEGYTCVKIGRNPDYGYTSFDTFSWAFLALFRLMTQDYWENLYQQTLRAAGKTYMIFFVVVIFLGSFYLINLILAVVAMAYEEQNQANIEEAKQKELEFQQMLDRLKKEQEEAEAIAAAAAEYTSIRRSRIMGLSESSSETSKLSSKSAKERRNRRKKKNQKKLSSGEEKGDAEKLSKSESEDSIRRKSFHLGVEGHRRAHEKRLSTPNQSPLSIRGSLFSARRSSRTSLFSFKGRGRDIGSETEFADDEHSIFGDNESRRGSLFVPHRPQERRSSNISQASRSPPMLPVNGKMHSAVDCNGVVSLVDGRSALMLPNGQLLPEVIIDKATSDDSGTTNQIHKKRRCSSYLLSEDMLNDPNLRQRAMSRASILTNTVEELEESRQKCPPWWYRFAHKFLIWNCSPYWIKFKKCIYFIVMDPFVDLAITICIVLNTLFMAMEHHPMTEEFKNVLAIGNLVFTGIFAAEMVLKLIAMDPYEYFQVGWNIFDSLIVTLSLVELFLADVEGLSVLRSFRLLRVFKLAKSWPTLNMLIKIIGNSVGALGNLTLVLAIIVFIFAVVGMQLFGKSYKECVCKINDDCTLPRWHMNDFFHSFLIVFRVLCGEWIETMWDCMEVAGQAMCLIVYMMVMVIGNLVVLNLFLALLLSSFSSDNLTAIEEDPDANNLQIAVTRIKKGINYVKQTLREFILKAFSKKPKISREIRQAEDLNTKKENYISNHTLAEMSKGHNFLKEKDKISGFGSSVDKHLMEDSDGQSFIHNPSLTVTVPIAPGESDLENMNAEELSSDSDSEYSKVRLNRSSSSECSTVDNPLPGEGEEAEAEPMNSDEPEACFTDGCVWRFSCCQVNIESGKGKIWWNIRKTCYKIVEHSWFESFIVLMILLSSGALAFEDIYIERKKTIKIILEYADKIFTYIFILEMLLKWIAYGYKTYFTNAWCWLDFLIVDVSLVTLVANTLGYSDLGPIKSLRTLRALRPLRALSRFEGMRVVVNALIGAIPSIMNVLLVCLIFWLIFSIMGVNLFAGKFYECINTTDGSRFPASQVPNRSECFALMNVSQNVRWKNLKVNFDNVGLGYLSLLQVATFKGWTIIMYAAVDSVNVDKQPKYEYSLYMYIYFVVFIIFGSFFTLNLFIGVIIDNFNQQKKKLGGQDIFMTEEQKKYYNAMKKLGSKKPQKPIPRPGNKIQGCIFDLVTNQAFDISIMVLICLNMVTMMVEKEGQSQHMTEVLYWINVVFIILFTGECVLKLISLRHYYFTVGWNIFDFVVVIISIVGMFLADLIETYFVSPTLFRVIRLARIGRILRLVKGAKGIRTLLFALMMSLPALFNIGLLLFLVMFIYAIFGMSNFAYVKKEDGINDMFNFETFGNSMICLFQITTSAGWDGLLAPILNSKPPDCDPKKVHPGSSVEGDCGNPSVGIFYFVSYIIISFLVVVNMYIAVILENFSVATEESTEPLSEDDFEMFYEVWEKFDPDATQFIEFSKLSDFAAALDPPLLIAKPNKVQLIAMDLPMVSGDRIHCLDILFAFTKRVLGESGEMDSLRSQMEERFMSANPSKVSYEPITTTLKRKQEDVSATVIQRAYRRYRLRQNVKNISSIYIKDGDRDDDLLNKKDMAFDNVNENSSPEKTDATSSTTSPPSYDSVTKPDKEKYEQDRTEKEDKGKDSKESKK
T5 sequence (Q14721 whole entry): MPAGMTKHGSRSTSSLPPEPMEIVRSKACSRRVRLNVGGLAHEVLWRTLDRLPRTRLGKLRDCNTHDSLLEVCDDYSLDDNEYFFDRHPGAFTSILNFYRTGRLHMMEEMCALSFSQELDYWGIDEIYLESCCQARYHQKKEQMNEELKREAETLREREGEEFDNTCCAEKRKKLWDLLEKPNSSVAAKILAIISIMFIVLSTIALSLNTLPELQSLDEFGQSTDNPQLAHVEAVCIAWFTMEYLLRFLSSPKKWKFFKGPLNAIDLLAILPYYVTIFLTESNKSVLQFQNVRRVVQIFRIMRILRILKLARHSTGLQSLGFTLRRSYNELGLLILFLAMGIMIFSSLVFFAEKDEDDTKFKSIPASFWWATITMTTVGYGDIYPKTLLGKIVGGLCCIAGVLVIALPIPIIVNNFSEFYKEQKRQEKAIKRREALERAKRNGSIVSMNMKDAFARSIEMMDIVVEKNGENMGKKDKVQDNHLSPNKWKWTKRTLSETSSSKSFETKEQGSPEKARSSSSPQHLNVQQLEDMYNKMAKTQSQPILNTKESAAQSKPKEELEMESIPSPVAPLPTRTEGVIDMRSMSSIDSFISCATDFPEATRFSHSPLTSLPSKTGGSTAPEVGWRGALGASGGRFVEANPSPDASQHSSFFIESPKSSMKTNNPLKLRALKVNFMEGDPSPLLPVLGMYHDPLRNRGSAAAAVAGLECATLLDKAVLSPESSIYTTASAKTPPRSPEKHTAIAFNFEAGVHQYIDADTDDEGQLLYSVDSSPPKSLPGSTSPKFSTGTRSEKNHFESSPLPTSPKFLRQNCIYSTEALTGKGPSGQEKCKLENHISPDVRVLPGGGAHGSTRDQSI

With “4 (GSSCAKPRENCNRMNILCCRGECVCPTFGDCFCYGD) [compound 4]” the “Activity of a3b4 with peptide, expressed as a percentage of the reference compound” value ([1]; peptide at 0.2 μM) was 107%, the “Activity of a3b4 with peptide (percentage of the reference compound)” value ([1]; peptide at 20 μM) was 97% and the “Activity of a4b2 with peptide, expressed as a percentage of the reference compound” value ([2]; peptide at 0.2 μM) was 86%. The “Activity of a4b2 with peptide (percentage of the reference compound)” value ([2]; peptide at 20 μM) was 81%, the “Activity of Kir2.1 with peptide, expressed as a percentage of the reference compound” value ([3]; peptide at 0.2 μM) was 109% and the “Activity of Kir2.1 with peptide (percentage of the reference compound)” value ([3]; peptide at 20 μM) was 90%. The “Activity of 5HT3a with peptide (percentage of the reference compound)” value [4] was 76%, the “Activity of 5HT3a with peptide, expressed as a percentage of the reference compound” value [4] was 103% and the “Activity of GABA with peptide, expressed as a percentage of the reference compound” value ([5]; peptide at 0.2 μM) was 121%. For the same substance, the “Activity of GABA with peptide (percentage of the reference compound)” value ([5]; peptide at 20 μM) was 108%, the “Activity of Kv2.1 with peptide, expressed as a percentage of the reference compound” value ([6]; peptide at 0.2 μM) was 112% and the “Activity of Kv2.1 with peptide (percentage of the reference compound)” value ([6]; peptide at 20 μM) was 102%. The “Activity of Cav2.1 with peptide, expressed as a percentage of the reference compound” value ([7]; peptide at 0.2 μM) was 111%, the “Activity of Cav2.1 with peptide (percentage of the reference compound)” value ([7]; peptide at 20 μM) was 130% and the “Activity of Cav2.2 with peptide, expressed as a percentage of the reference compound” value ([8]; peptide at 0.2 μM) was 105%. The “Activity of Cav2.2 with peptide (percentage of the reference compound)” value ([8]; peptide at 20 μM) was 101%, the “Activity of Kv1.2 with peptide, expressed as a percentage of the reference compound” value ([9]; peptide at 0.2 μM) was 90% and the “Activity of Kv1.2 with peptide (percentage of the reference compound)” value ([9]; peptide at 20 μM) was 45%. The “Activity of Kv1.3 with peptide, expressed as a percentage of the reference compound” value ([10]; peptide at 0.2 μM) was 109%, the “Activity of Kv1.3 with peptide (percentage of the reference compound)” value ([10]; peptide at 20 μM) was 87% and the “Activity of Kv1.1 with peptide, expressed as a percentage of the reference compound” value ([11]; peptide at 0.2 μM) was 106%. For the same substance, the “Activity of Kv1.1 with peptide (percentage of the reference compound)” value ([11]; peptide at 20 μM) was 91%, the “Activity of Nav1.5 with peptide, expressed as a percentage of the reference compound” value [12, 19] was 117% and the “Activity of Nav1.5 with peptide, expressed as a percentage of the reference compound” value [12, 20] was 118%. For the same substance, the “Activity of Nav1.5 with peptide (percentage of the reference compound)” value [12, 19] was 98%, the “Activity of Nav1.5 with peptide (percentage of the reference compound)” value [12, 20] was 101% and the “Activity of hERG with peptide, expressed as a percentage of the reference compound” value ([13]; peptide at 0.2 μM) was 110%. For the same substance, the “Activity of hERG with peptide (percentage of the reference compound)” value ([13]; peptide at 20 μM) was 80%, the “Activity of NR2A with peptide, expressed as a percentage of the reference compound” value ([14]; peptide at 0.2 μM) was 106% and the “Activity of NR2A with peptide (percentage of the reference compound)” value ([14]; peptide at 20 μM) was 90%. The “Activity of TRPV1 with peptide, expressed as a percentage of the reference compound” value ([15]; peptide at 0.2 μM) was 110%, the “Activity of TRPV1 with peptide (percentage of the reference compound)” value ([15]; peptide at 20 μM) was 98% and the “Activity of NR2B with peptide, expressed as a percentage of the reference compound” value ([16]; peptide at 0.2 μM) was 117%. The “Activity of NR2B with peptide (percentage of the reference compound)” value ([16]; peptide at 20 μM) was 93%, the “Activity of Nav1.7 with peptide, expressed as a percentage of the reference compound” value [17, 21] was 95% and the “Activity of Nav1.7 with peptide, expressed as a percentage of the reference compound” value [17, 22] was 93%. For the same substance, the “Activity of Nav1.7 with peptide (percentage of the reference compound)” value [17, 21] was 96%, the “Activity of Nav1.7 with peptide (percentage of the reference compound)” value [17, 22] was 104% and the “Activity of TRPA1 with peptide, expressed as a percentage of the reference compound” value ([18]; peptide at 0.2 μM) was 135%. For the same substance, the “Activity of TRPA1 with peptide (percentage of the reference compound)” value ([18]; peptide at 20 μM) was 119%.
